Results on 6 molecules are retold here after article PMC9104804, “Fine-Tuning Modulation of Oxidation-Mediated Posttranslational Control of Bradyrhizobium diazoefficiens FixK2 Transcription Factor”.

Data set [1] has as its target T1, C183S FixK2 C183S (Bradyrhizobium diazoefficiens 110spc4) (UniProt O69245).
T1 sequence: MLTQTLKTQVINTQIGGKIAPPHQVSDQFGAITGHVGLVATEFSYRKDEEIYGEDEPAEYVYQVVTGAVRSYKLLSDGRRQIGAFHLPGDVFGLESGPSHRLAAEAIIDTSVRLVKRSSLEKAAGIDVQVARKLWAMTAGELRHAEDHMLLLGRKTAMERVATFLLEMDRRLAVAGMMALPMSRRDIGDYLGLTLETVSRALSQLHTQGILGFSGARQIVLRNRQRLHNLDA
The experiment in a line: EMSA. The settings on record: EMSA: 40 mM Tris-HCl pH 8, 10 mM MgCl2, 0.1 mM EDTA, 0.1 mM DTT, 150 mM KCl, 0.4 mM K3PO4, room temperature, 30 min; SPR: 40 mM Tris-HCl pH 7.0, 150 mM KCl ….

For data set [2], the target named is T2, C183D FixK2 C183D (Bradyrhizobium diazoefficiens 110spc4) (UniProt O69245).
T2 sequence: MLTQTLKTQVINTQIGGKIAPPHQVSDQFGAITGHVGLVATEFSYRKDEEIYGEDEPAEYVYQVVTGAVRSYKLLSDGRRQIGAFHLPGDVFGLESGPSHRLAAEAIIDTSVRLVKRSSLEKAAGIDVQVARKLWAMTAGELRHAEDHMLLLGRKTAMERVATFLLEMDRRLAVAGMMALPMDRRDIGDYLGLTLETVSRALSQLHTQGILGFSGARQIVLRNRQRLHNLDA
The experiment in a line: EMSA. The settings on record: EMSA: 40 mM Tris-HCl pH 8, 10 mM MgCl2, 0.1 mM EDTA, 0.1 mM DTT, 150 mM KCl, 0.4 mM K3PO4, room temperature, 30 min; SPR: 40 mM Tris-HCl pH 7.0, 150 mM KCl …; scale: fold higher protein concentration than C183S for similar shift.

Data set [3] has as its target C183D FixK2 protein variant of Bradyrhizobium diazoefficiens (Bradyrhizobium diazoefficiens) (UniProt Q89RK6). The experiment in a line: SEC; analytical SEC, Superdex 200 10/300 GL, room temperature, 40 mM Tris-HCl pH 7.0, 150 mM KCl, 0.1 mM EDTA; 100 µL samples loaded at 2.5-30 µM (native) or 2.5-40 µM (C183S, C183D); concentrations refer to the dimeric form; monomer-dimer equilibrium.

Data set [4] has as its target C183S FixK2 protein variant of Bradyrhizobium diazoefficiens (Bradyrhizobium diazoefficiens) (UniProt Q89RK6). The data set is described as above.
For data set [5], the target named is FixK2 protein (native, wild type) of Bradyrhizobium diazoefficiens (Bradyrhizobium diazoefficiens) (UniProt Q89RK6). Described as above.
A further data set addresses T3, C183S FixK2 (Bradyrhizobium diazoefficiens 110spc4, UniProt O69245 1-232, C183S).
T3 sequence: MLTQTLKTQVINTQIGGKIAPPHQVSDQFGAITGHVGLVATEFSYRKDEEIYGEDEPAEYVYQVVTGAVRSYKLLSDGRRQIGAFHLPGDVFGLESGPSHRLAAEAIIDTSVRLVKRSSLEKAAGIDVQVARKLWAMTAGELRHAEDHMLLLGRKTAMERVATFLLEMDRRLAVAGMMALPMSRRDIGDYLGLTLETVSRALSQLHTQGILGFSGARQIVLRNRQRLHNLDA
The data set can be described thus: SPR; sensorgram at 250 nM; nanomolar affinity only cited from earlier study; EMSA: 40 mM Tris-HCl pH 8, 10 mM MgCl2, 0.1 mM EDTA, 0.1 mM DTT, 150 mM KCl, 0.4 mM K3PO4, room temperature, 30 min; SPR: 40 mM Tris-HCl pH 7.0, 150 mM KCl, 0.1 mM EDTA, 0.005% Tween 20, 25 °C. The settings on record: protein: recombinant; tags: untagged after cleavage of C-terminal Mxe GyrA intein-CBD (IMPACT, pTXB1); chain copies: 2; label: biotin; blunt.

With “AAGAACACAGCGCCAGAAACCACATTCACCCTCGCGGGGAATTGATTGAAATCAAGATAGGTGGATTTCTGTTAATGTGAGGCTTTCGCG (double strand) [fixNOQP promoter 90-bp PCR fragment]”, the binding entry in data set [1] was “binds”. The binding signal in data set [2] was 32. “C183D FixK2 protein variant of Bradyrhizobium diazoefficiens (from UniProt Q89RK6 4-235) (natural protein)”: the stoichiometry N in data set [3] came out at 2.

For “C183S FixK2 protein variant of Bradyrhizobium diazoefficiens (from UniProt Q89RK6 4-235) (natural protein)”, the stoichiometry N in data set [4] came out at 2.

In turn, “FixK2 protein (native, wild type) of Bradyrhizobium diazoefficiens (from UniProt Q89RK6 4-235) (natural protein)” registered a stoichiometry N in data set [5] of 2. As to fixNOQP promoter 90-bp PCR fragment, in data set [2], the binding signal was 32.

B1: fixN_3 FixK2 box duplex (SPR) (dsDNA)
DNA 1: CCACCTATCTTGATTTCAATCAATTCCCCG
DNA 2: CGGGGAATTGATTGAAATCAAGATAGGTGG
modifications: 5'-biotin on reverse strand (S47)
Take B1: in the data set with C183S FixK2, the binding result is listed as “binds”.
